Where two headings read alike, the source gives them in different places.
Legend:
[1] = rat, in vivo, 50 mg/kg
Protocol: (§1) An intracolonic dosing composition containing 50 mg/kg of carrier 9 and 250 μg/kg of interferon in 50% propylene glycol was prepared. Rats were administered the dosing composition by intracolonic instillation.
(§2) Rats were administered, orally and by intracolonic instillation, dosing solutions of 1 mg/kg of interferon and no carrier.

[2] = In vivo interferon delivery (ELISA for human interferon); details: 1 mg/kg interferon, no carrier
Protocol: as §1, §2

Row | Mean peak serum interferon concentration [1] | Compound | Mean peak serum interferon concentration ([2]; intracolonic (IC)) | Mean peak serum interferon concentration ([2]; oral (PO))
1 | 2611±695 | O=C(O)CCCc1ccc(NC(=O)COc2ccccc2)cc1 [Compound 9] |  | 
2 |  | interferon | 79±100 | 1951±1857
